# B1: Tpa1Δ20, N-terminal truncated form (residues 21–644) of S. cerevisiae Tpa1 (domain or fragment, UniProt P40032 21-644, looked up)
# chain: LEEDKIKGMFNPKIWDKTFQDGLKKEIEDSQPYNWGTIHELVNDDLLRAVRKEIETEIHFTKKETDIYRVNQSGDLANLSGLDWDDLSRLPNLFKLRQILYSKQYRDFFGYVTKAGKLSGSKTDMSINTYTKGCHLLTHDDVIGSRRISFILYLPDPDRKWKSHYGGGLRLFPSILPNVPHSDPSAKLVPQFNQIAFFKVLPGFSFHDVEEVKVDKHRLSIQGWYHIPQVGEEGYIPGEEEAWVRNNTSTLAQIESNVLEDFEFPKDERNILSFHEVKHFEKMLKGDAGAKTDNTPKESMTSVISDSVKLSEAEFTYLSQYISPEHLSSKGIEKLQKQFVENSSLQIESFLNDDKSELLKKVIKQKELEQECPYHSKDVKAPWKTAIPPHKARYLYIDGKEYRNFQTEADILEALNNNDLPNFQFTKDAIKIISDASGNSRENNFDAELALIDLAVFHKSTIFKKYLALLTSLCPVSEQILIRRFRPGMDFTLATKCRFNELLKSNPDIIDAVLEGTLCLTPSAGWESGELGGYELYMMDDDEDNKQYLKEDVEDASVYRADDSGDSVLINDPPAWNTFNLVLRDESVLEFVKYVSWSAKSSRWDVKMKWDVKSCDEDGQEDEA
# Biological target: the molecule itself
# Test: AUC
protein,measurement,value
B1,stoichiometry N,2

# Source: paper PMC2847220 (Nucleic Acids Research, 2009)
